Legend:
HLA-A*24:03 [1] = experiment: IEDB peptide-MHC binding, purified MHC/competitive/fluorescence; filed as Kd, often an IC50 or EC50 that approximates it; ≥ and ≤ were set here for values at or beyond the usual limits of such assays
HLA-B*46:01 [2] = experiment: as above
HLA-B*57:01 [3] = experiment: as above
HLA-B*27:03 = experiment: as above
HLA-B*51:01 = experiment: as above
HLA-A*26:01 = experiment: as above
HLA-A*03:01 [4] = experiment: as above
HLA-B*18:01 [5] = experiment: as above; conditions: source organism: Vibrio parahaemolyticus K5030
HLA-A*02:19 = experiment: as above
HLA-A*29:02 [6] = experiment: as above; conditions: source organism: Vibrio parahaemolyticus K5030
HLA-A*02:01 [7] = experiment: as above
HLA-A*02:11 = experiment: as above
HLA-B*15:01 [8] = experiment: as above; conditions: source organism: Cryptosporidium parvum Iowa II
HLA-B*15:17 = experiment: as above
HLA-A*02:03 = experiment: as above; conditions: source organism: Cryptosporidium parvum Iowa II
HLA-A*69:01 = experiment: IEDB peptide-MHC binding, purified MHC/direct/fluorescence; filed as Kd, often an IC50 or EC50 that approximates it; ≥ and ≤ were set here for values at or beyond the usual limits of such assays
HLA-B*46:01 [9] = experiment: as above
HLA-B*07:02 = experiment: as above
HLA-A*31:01 = experiment: as above
HLA-B*39:01 = experiment: as above
HLA-B*57:01 [10] = experiment: as above
HLA-B*27:05 = experiment: as above
HLA-B*58:01 = experiment: as above
HLA-B*48:01 = experiment: as above
HLA-B*15:01 [11] = experiment: as above
HLA-A*01:01 = experiment: as above
HLA-B*44:02 = experiment: as above
HLA-A*02:12 = experiment: as above; conditions: source organism: Maporal virus
HLA-A*24:03 [12] = experiment: as above; conditions: source organism: Maporal virus
HLA-A*68:02 = experiment: as above; conditions: source organism: Maporal virus
HLA-A*03:01 [13] = experiment: as above
HLA-B*18:01 [14] = experiment: as above
HLA-A*29:02 [15] = experiment: as above
HLA-A*02:01 [16] = experiment: as above
HLA-B*08:02 = experiment: as above; conditions: source organism: Influenza A virus(A/swine/Shandong/fNY/2003(H9N2))
HLA-B*40:01 = experiment: as above
HLA-A*11:01 = experiment: as above
HLA-B*08:01 = experiment: as above; conditions: source organism: Influenza A virus (A/Viet Nam/HN/2004(H5N1))
HLA-A*24:02 = experiment: as above; conditions: source organism: Influenza A virus (A/Viet Nam/HN/2004(H5N1))
[17] = source organism: Vibrio parahaemolyticus K5030
[18] = source organism: Cryptosporidium parvum Iowa II
[19] = source organism: Encephalitozoon cuniculi GB-M1
[20] = source organism: Orthohantavirus andesense
[21] = source organism: Influenza A virus (A/Viet Nam/HN/2004(H5N1))
[22] = source organism: Mycobacterium avium 104

AYYKPYVQL
Kd (HLA-A*24:03 [1]; source organism: Bacillus cereus G9241): 0.0009 µM

GYDFEREGY
Kd (HLA-A*24:03 [1]; source organism: Influenza A virus (A/swine/Italy/1509-6/97(H1N1))): 0.0358 µM

LQNFCQHLV
Kd (HLA-B*46:01 [2]; [17]): ≥ 20 µM | Kd (HLA-B*57:01 [3]; [17]): ≥ 20 µM | Kd (HLA-B*27:03; [17]): ≥ 20 µM | Kd (HLA-B*51:01; [17]): ≥ 20 µM | Kd (HLA-A*26:01; [17]): ≥ 20 µM | Kd (HLA-A*24:03 [1]; [17]): ≥ 20 µM | Kd (HLA-A*03:01 [4]; [17]): ≥ 20 µM | Kd (HLA-B*18:01 [5]): ≥ 20 µM | Kd (HLA-A*02:19; [17]): 0.0251 µM | Kd (HLA-A*29:02 [6]): 0.0196 µM | Kd (HLA-A*02:01 [7]; [17]): 0.0024 µM | Kd (HLA-A*02:11; [17]): 0.0006 µM

SGLPGIFIV
Kd (HLA-B*46:01 [2]; [18]): ≥ 20 µM | Kd (HLA-B*57:01 [3]; [18]): ≥ 20 µM | Kd (HLA-B*27:03; [18]): ≥ 20 µM | Kd (HLA-B*15:01 [8]): ≥ 20 µM | Kd (HLA-B*15:17; [18]): ≥ 20 µM | Kd (HLA-A*26:01; [18]): ≥ 20 µM | Kd (HLA-A*03:01 [4]; [18]): ≥ 20 µM | Kd (HLA-A*02:19; [18]): ≥ 20 µM | Kd (HLA-A*02:03): ≥ 20 µM | Kd (HLA-A*02:01 [7]; [18]): ≥ 20 µM | Kd (HLA-A*02:11; [18]): 5.45 µM

SMIFSVLDA
Kd (HLA-A*02:01 [7]; [19]): 0.0014 µM | Kd (HLA-A*02:11; [19]): 0.129 µM

TRDHVNLVL
Kd (HLA-A*69:01; [20]): ≥ 20 µM | Kd (HLA-B*46:01 [9]; [20]): ≥ 20 µM | Kd (HLA-B*07:02; [20]): ≥ 20 µM | Kd (HLA-A*31:01; [20]): ≥ 20 µM | Kd (HLA-B*39:01; [20]): 0.0457 µM | Kd (HLA-B*57:01 [10]; [20]): ≥ 20 µM | Kd (HLA-B*27:05; [20]): ≥ 20 µM | Kd (HLA-B*58:01; [20]): ≥ 20 µM | Kd (HLA-B*48:01; [20]): ≥ 20 µM | Kd (HLA-B*15:01 [11]; [20]): ≥ 20 µM | Kd (HLA-A*01:01; [20]): ≥ 20 µM | Kd (HLA-B*44:02; [20]): ≥ 20 µM | Kd (HLA-A*02:12): ≥ 20 µM | Kd (HLA-A*24:03 [12]): ≥ 20 µM | Kd (HLA-A*68:02): ≥ 20 µM | Kd (HLA-A*03:01 [13]; [20]): ≥ 20 µM | Kd (HLA-B*18:01 [14]; [20]): ≥ 20 µM | Kd (HLA-A*29:02 [15]; [20]): ≥ 20 µM | Kd (HLA-A*02:01 [16]; [20]): ≥ 20 µM | Kd (HLA-B*27:03; [20]): ≥ 20 µM | Kd (HLA-B*51:01; [20]): ≥ 20 µM | Kd (HLA-B*15:17; [20]): ≥ 20 µM | Kd (HLA-A*26:01; [20]): ≥ 20 µM

VHFRNQVKI
Kd (HLA-A*69:01; [21]): ≥ 20 µM | Kd (HLA-B*46:01 [9]; [21]): ≥ 20 µM | Kd (HLA-B*07:02; [21]): ≥ 20 µM | Kd (HLA-A*31:01; [21]): ≥ 20 µM | Kd (HLA-B*39:01; [21]): 1.56 µM | Kd (HLA-B*27:05; [21]): ≥ 20 µM | Kd (HLA-B*58:01; [21]): ≥ 20 µM | Kd (HLA-B*08:02): ≥ 20 µM | Kd (HLA-B*40:01; [21]): ≥ 20 µM | Kd (HLA-B*15:01 [11]; [21]): ≥ 20 µM | Kd (HLA-A*01:01; [21]): ≥ 20 µM | Kd (HLA-A*11:01; [21]): ≥ 20 µM | Kd (HLA-B*08:01): ≥ 20 µM | Kd (HLA-A*03:01 [13]; [21]): ≥ 20 µM | Kd (HLA-A*24:02): ≥ 20 µM | Kd (HLA-A*02:01 [16]; [21]): ≥ 20 µM

VRDVVMPAL
Kd (HLA-A*69:01; [22]): ≥ 20 µM | Kd (HLA-B*46:01 [9]; [22]): ≥ 20 µM | Kd (HLA-A*31:01; [22]): ≥ 20 µM | Kd (HLA-B*39:01; [22]): 0.0674 µM | Kd (HLA-B*57:01 [10]; [22]): ≥ 20 µM | Kd (HLA-B*27:05; [22]): ≥ 20 µM | Kd (HLA-B*58:01; [22]): ≥ 20 µM | Kd (HLA-B*40:01; [22]): ≥ 20 µM | Kd (HLA-B*48:01; [22]): ≥ 20 µM | Kd (HLA-B*15:01 [11]; [22]): ≥ 20 µM | Kd (HLA-A*01:01; [22]): ≥ 20 µM | Kd (HLA-B*44:02; [22]): ≥ 20 µM | Kd (HLA-A*11:01; [22]): ≥ 20 µM | Kd (HLA-A*03:01 [13]; [22]): ≥ 20 µM | Kd (HLA-B*18:01 [14]; [22]): ≥ 20 µM | Kd (HLA-A*29:02 [15]; [22]): ≥ 20 µM | Kd (HLA-A*02:01 [16]; [22]): ≥ 20 µM

— the Immune Epitope Database (IEDB)
